# Test results as given in patent publication US20230002488A1 (SYSTIMMUNE, published 2023).
# T1: human CD19 (human, UniProt P15391 20-291)
# T1 sequence (looked up): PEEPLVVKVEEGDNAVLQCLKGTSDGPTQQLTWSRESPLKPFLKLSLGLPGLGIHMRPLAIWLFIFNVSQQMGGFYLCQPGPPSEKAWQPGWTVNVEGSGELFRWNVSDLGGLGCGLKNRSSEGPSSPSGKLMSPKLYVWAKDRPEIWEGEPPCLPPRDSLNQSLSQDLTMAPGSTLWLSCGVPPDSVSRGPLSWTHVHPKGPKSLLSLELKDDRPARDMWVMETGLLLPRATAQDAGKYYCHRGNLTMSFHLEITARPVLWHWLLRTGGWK
# B1: SI-55P9 (antibody, human IgG1, kappa)
# heavy: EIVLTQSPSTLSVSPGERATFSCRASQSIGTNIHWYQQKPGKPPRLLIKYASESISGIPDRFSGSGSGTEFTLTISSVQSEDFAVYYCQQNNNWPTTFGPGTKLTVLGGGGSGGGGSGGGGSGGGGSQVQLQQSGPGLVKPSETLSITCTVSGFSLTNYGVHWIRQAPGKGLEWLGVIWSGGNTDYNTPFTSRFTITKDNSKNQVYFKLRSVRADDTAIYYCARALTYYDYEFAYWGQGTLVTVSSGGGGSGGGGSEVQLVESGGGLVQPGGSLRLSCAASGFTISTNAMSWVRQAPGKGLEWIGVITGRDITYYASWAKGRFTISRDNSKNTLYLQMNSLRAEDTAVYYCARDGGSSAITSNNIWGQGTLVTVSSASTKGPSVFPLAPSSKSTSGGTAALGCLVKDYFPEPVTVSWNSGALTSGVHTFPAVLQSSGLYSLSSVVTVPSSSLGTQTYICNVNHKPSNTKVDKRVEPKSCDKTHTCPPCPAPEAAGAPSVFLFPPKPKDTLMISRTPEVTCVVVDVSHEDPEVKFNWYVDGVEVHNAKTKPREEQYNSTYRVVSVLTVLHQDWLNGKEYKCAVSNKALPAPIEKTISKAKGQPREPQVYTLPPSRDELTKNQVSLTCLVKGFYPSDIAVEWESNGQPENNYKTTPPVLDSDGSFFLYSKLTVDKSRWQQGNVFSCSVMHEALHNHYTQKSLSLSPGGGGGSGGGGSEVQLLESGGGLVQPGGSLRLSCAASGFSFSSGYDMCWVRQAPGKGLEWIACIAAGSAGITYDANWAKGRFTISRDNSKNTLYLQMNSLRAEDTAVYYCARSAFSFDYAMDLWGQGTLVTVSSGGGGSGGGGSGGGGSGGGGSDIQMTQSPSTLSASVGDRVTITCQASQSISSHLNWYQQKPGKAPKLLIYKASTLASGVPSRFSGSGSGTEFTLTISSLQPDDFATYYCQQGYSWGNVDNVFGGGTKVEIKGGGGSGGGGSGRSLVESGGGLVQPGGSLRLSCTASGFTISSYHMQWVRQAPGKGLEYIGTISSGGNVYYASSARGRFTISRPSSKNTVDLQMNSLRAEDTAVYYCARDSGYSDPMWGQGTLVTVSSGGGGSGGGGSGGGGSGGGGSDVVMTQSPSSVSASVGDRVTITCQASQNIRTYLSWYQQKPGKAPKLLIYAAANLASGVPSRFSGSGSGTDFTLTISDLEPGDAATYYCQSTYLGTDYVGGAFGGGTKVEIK
# light: ENVLTQSPASLSASPGERVTITCSASSSVSYMHWYQQKPGQAPKLWIYDTSKLASGVPSRFSGSGSGNDHTLTISSMEPEDFATYYCFQGSVYPFTFGQGTKVTVLGGGGSGGGGSGGGGSGGGGSQVTLKESGPGLVQPGQTLRLTCAFSGFSLSTSGMGVGWIRQPPGKGLEWLAHIWWDDDKRYNPALKSRLTISKDTSKNQVYLQMNSLDAEDTAVYYCARMELWSYYFDYWGQGTLVTVSSGGGGSGGGGSDVVMTQSPSTLSASVGDRVTINCQASESISSWLAWYQQKPGKAPKLLIYEASKLASGVPSRFSGSGSGTEFTLTISSLQPDDFATYYCQGYFYFISRTYVNSFGGGTKVEIKRTVAAPSVFIFPPSDEQLKSGTASVVCLLNNFYPREAKVQWKVDNALQSGNSQESVTEQDSKDSTYSLSSTLTLSKADYEKHKVYACEVTHQGLSSPVTKSFNRGEC
# notes: Penta-specific: D1 humanized anti-EGFR H7 scFv, D2 CD3, D3 PD-L1, D4 4-1BB, D6 CD19
# Legend:
# [1] = target: T2, human EGFR (human, UniProt P00533 25-645); test: BLI (Octet), GNC on AHC sensor, His-tagged human EGFR as analyte, global 1:1 fit
# T2 construct: also called huEGFR; His-tagged human EGFR
# [2] = target: T2, human EGFR; test: BLI (Octet), GNC on AHC sensor, antigen as analyte, 1:1 fit
# [3] = target: T3, human PD-L1 (human, UniProt Q9NZQ7 19-238); test: BLI (Octet), GNC on AHC sensor, 100 nM antigen as analyte, 1:1 fit
# T3 construct: Bought antigen; construct not described
# [4] = target: T4, human 4-1BB (human, UniProt Q07011 24-186); test: as above
# T4 construct: Bought antigen; construct not described
# [5] = target: T1, human CD19; test: BLI (Octet), GNC on AHC sensor; strong binding, dissociation too slow to quantify KD
binder,measurement,setting,value
B1,Kd,[1],7.41 nM
same,Kd,[2],7.41 nM
same,Kd,[3],0.407 nM
same,Kd,[4],7.55 nM
same,binding result,[5],binds
